Paper PMC6071530 (2018)

Target: ERBB2 (Homo sapiens (Human), UniProt P04626)
Assay: SPR (ErbB-Fc on chip, avid)

Kd: > 1250 nM
B1: S100A4 (protein)
chain 1: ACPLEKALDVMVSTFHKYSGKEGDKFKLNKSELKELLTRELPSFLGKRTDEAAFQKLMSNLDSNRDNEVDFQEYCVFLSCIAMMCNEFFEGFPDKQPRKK
chain 2: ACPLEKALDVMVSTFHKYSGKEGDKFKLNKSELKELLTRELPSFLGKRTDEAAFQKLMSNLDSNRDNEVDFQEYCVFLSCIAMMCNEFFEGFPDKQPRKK
